According to patent US20230159646A1 (IBIO, published 2023):
Each block holds one binder with its values, some of them ahead of it.

Experiments:
[1] = target: T1, CD25 endogenously expressed on SUDHL-1 human lymphoma cell line and on induced human Treg (iTreg) (human, UniProt P01589 22-272); assay: flow cytometry, human iTreg cells; average of n=3, SD 83.94
T1 construct: whole, on cells; also called CD25 on SUDHL-1 and iTreg; CD25 expressing SUDHL-1
T1 sequence (looked up): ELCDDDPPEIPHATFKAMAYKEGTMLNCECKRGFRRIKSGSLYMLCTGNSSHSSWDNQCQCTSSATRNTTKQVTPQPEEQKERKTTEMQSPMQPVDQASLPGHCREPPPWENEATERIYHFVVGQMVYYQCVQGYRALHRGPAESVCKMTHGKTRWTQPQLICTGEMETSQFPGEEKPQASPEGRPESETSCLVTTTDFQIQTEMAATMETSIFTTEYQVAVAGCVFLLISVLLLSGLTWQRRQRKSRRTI

[2] = target: T2, mouse CD25 (immobilized, ELISA) (mouse, UniProt P01590 22-236, limits assumed); assay: ELISA, immobilized mouse CD25 (N/A in the 14th table, row 10, column 6)
T2 construct: also called immobilized mouse CD25
T2 sequence (looked up): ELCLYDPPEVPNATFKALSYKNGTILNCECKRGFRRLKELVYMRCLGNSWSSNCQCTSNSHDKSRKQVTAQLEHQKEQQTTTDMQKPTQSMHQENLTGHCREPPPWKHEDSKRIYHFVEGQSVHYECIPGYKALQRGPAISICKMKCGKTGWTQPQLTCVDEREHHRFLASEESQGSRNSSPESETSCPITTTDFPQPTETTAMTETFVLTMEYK

[3] = target: T3, CD25 (as used in the Carterra LSA kinetics; species and construct not stated) (Homo sapiens (Human), UniProt P01589 22-240); assay: Carterra LSA kinetics; KD SD 1.27 nM
T3 sequence: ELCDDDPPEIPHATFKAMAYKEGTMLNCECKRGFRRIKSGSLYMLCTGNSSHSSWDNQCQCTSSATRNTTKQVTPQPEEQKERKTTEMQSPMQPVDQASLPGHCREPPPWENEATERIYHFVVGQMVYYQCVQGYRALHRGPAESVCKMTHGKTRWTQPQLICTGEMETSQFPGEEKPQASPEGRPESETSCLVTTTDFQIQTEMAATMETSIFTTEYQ

[4] = target: T1, CD25 endogenously expressed on SUDHL-1 …; assay: flow cytometry, SUDHL-1 cells; average of n>=6, SD 38.12
[5] = target: T4, human CD25 (Sino Biologicals, 10165-H08H) (human, UniProt P01589 22-213); assay: ELISA, immobilized human CD25; average of n>=3, SD 3.2
T4 construct: Bought recombinant protein coated on ELISA plates; also called immobilized human CD25; IL2RA
T4 sequence (looked up): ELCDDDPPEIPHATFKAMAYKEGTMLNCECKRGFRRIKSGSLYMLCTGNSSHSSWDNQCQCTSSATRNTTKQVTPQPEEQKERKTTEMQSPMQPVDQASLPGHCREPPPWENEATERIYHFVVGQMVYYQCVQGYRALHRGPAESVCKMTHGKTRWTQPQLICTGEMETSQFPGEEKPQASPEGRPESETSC

[6] = target: T3, CD25 (as used in the Carterra LSA …); assay: Carterra LSA kinetics
[7] = target: T5, cynomolgus CD25 (Sino Biologicals, 90265-C08H) (cynomolgus, UniProt H6WS54 22-213); assay: ELISA, immobilized cynomolgus CD25; average of n>=3, SD 9.8
T5 construct: Bought recombinant protein coated on ELISA plates; also called immobilized cynomolgus CD25; cynos monkey CD25
T5 sequence: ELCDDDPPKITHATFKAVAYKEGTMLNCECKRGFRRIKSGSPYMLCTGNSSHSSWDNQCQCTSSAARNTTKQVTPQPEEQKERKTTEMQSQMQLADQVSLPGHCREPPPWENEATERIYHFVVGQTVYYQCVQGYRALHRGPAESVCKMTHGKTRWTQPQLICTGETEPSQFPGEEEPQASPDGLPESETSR

[8] = target: T2, mouse CD25 (immobilized, ELISA); assay: ELISA, immobilized mouse CD25 (N/A in the 14th table, row 9, column 6)
[9] = target: T1, CD25 endogenously expressed on SUDHL-1 …; assay: flow cytometry, SUDHL-1 cells; average of n>=6, SD 39.9
[10] = target: T3, CD25 (as used in the Carterra LSA …); assay: Carterra LSA kinetics; KD SD 1.03 nM
[11] = target: T2, mouse CD25 (immobilized, ELISA); assay: ELISA, immobilized mouse CD25 (N/A in the 14th table, row 8, column 6)
[12] = target: T1, CD25 endogenously expressed on SUDHL-1 …; assay: flow cytometry, human iTreg cells; average of n=3, SD 40.50
[13] = target: T5, cynomolgus CD25 (Sino Biologicals, …); assay: ELISA, immobilized cynomolgus CD25; average of n>=3, SD 12.3
[14] = target: T4, human CD25 (Sino Biologicals, …); assay: ELISA, immobilized human CD25; average of n>=3, SD 2.5
[15] = target: T2, mouse CD25 (immobilized, ELISA); assay: ELISA, immobilized mouse CD25 (N/A in the 14th table, row 7, column 6)

B1: IBIO-101-plant-afuc (SD-889825-PC-A; IBIO-101, c-105 plant Afucosylated) (antibody, human IgG1, kappa, V domains shown)
VH: QVQLVQSGAEVKKPGASLKISCKGSGYTFTDYAMHWVRQAPGQGLEWIGVISTYSGDAIYAQKFQGRATMTVDTSTSTAYLELSSLRSEDTAVYYCARGVTFDYWGQGTTVTVSS
VL: DIQMTQSPSSLSASVGDRVTITCRASQDISNYLEWYQQKPGKAPKLLVYNAKTLAEGVPSRFSGSGSGTDFTLTISSLQPEDFGTYYCQHHYDTPYTFGQGTKLEIKR
modifications: afucosylated glycan (made in C105 dXT/FT plants deficient in fucosylation and xylosylation)
notes: Signal peptide of the entries is not part of the mature antibody; Human IgG1 constant region, afucosylated; also called RTX-003; hD11
EC50 [1]: 0.218 µg/mL
binding result [2]: no binding (tested: 10 µg/mL)
Kd [3]: 4.27 nM
EC50 [4]: 0.123 µg/mL
EC50 [5]: 0.0174 µg/mL
koff [6]: 0.00207 s⁻¹
kon [6]: 492000 M⁻¹ s⁻¹
EC50 [7]: 0.0424 µg/mL

B2: IBIO-101-plant-WT (SD-889825-PW-A; IBIO-101, wild-type plant) (antibody, human IgG1, kappa, V domains shown)
VH: QVQLVQSGAEVKKPGASLKISCKGSGYTFTDYAMHWVRQAPGQGLEWIGVISTYSGDAIYAQKFQGRATMTVDTSTSTAYLELSSLRSEDTAVYYCARGVTFDYWGQGTTVTVSS
VL: DIQMTQSPSSLSASVGDRVTITCRASQDISNYLEWYQQKPGKAPKLLVYNAKTLAEGVPSRFSGSGSGTDFTLTISSLQPEDFGTYYCQHHYDTPYTFGQGTKLEIKR
notes: Signal peptide of the entries is not part of the mature antibody; Made in wild-type Nicotiana benthamiana; human IgG1 constant region; also called RTX-003; hD11
binding result [8]: no binding (tested: 10 µg/mL)

Next, values leading:

EC50 [9]: 0.126 µg/mL
Kd [10]: 3.9 nM
binding result [11]: no binding (tested: 10 µg/mL)
EC50 [12]: 0.219 µg/mL
EC50 [13]: 0.0431 µg/mL
koff [6]: 0.00119 s⁻¹
kon [6]: 499000 M⁻¹ s⁻¹
EC50 [14]: 0.0156 µg/mL
B3: IBIO-101-CHO-afuc (SD-889825-CG-A; IBIO-101, CHO cells Afucosylated) (antibody, human IgG1, kappa, V domains shown)
VH: QVQLVQSGAEVKKPGASLKISCKGSGYTFTDYAMHWVRQAPGQGLEWIGVISTYSGDAIYAQKFQGRATMTVDTSTSTAYLELSSLRSEDTAVYYCARGVTFDYWGQGTTVTVSS
VL: DIQMTQSPSSLSASVGDRVTITCRASQDISNYLEWYQQKPGKAPKLLVYNAKTLAEGVPSRFSGSGSGTDFTLTISSLQPEDFGTYYCQHHYDTPYTFGQGTKLEIKR
modifications: afucosylated glycan (as printed: afucosylated)
notes: signal peptide of the entries is not part of the mature antibody; Human IgG1 constant region, afucosylated; also called RTX-003; hD11

binding result [15]: no binding (tested: 10 µg/mL)
B4: IBIO-101-CHO-WT (SD-889825-CW-A; IBIO-101, wild-type CHO cells) (antibody, human IgG1, kappa, V domains shown)
VH: QVQLVQSGAEVKKPGASLKISCKGSGYTFTDYAMHWVRQAPGQGLEWIGVISTYSGDAIYAQKFQGRATMTVDTSTSTAYLELSSLRSEDTAVYYCARGVTFDYWGQGTTVTVSS
VL: DIQMTQSPSSLSASVGDRVTITCRASQDISNYLEWYQQKPGKAPKLLVYNAKTLAEGVPSRFSGSGSGTDFTLTISSLQPEDFGTYYCQHHYDTPYTFGQGTKLEIKR
notes: the entries carry the plant extensin signal peptide, which is not part of the mature antibody; Human IgG1 constant region, fucosylated (WT); also called RTX-003; hD11
